Results taken from FireProtDB (doi:10.1021/bi972994k).

Details: Saccharolobus solfataricus (strain ATCC 35092 / DSM 1617 / JCM 11322 / P2), Thermal, DSC, glycine-HCl 10 mM, NaCl 100 mM, reversible: yes, whole UniProt chain shown

B1: DNA-binding protein 7d wild type, P39476 (protein)
chain: MATVKFKYKGEEKEVDISKIKKVWRVGKMISFTYDEGGGKTGRGAVSEKDAPKELLQMLEKQKK
For B1, the Tm (pH 2.3) was 64 °C, the “heat capacity change of unfolding” value (pH 2.3) was 0.48 kcal/mol/K and the “unfolding enthalpy (calorimetric)” value (pH 2.3) was 40.6 kcal/mol. The Tm (pH 2.5) was 65.5 °C, the “heat capacity change of unfolding” value (pH 2.5) was 0.57 kcal/mol/K and the “unfolding enthalpy (calorimetric)” value (pH 2.5) was 43 kcal/mol. The Tm (pH 2.7) was 71.1 °C, the “heat capacity change of unfolding” value (pH 2.7) was 0.57 kcal/mol/K and the “unfolding enthalpy (calorimetric)” value (pH 2.7) was 46.6 kcal/mol. The Tm (pH 2.8) was 74 °C, the “heat capacity change of unfolding” value (pH 2.8) was 0.45 kcal/mol/K and the “unfolding enthalpy (calorimetric)” value (pH 2.8) was 49 kcal/mol. For the same protein, the Tm (pH 2.9) was 76.3 °C, the “heat capacity change of unfolding” value (pH 2.9) was 0.65 kcal/mol/K and the “unfolding enthalpy (calorimetric)” value (pH 2.9) was 50.2 kcal/mol. For the same protein, the Tm (pH 3) was 78.8 °C, the “heat capacity change of unfolding” value (pH 3) was 0.74 kcal/mol/K and the “unfolding enthalpy (calorimetric)” value (pH 3) was 51.4 kcal/mol. For the same protein, the Tm (pH 3.2) was 84.2 °C, the “heat capacity change of unfolding” value (pH 3.2) was 0.72 kcal/mol/K and the “unfolding enthalpy (calorimetric)” value (pH 3.2) was 55 kcal/mol. The Tm (pH 3.6) was 90.3 °C, the “heat capacity change of unfolding” value (pH 3.6) was 0.6 kcal/mol/K and the “unfolding enthalpy (calorimetric)” value (pH 3.6) was 58.6 kcal/mol. The Tm (pH 3.8) was 92.4 °C, the “heat capacity change of unfolding” value (pH 3.8) was 0.69 kcal/mol/K and the “unfolding enthalpy (calorimetric)” value (pH 3.8) was 59.8 kcal/mol. The Tm (pH 4) was 95.1 °C, the “heat capacity change of unfolding” value (pH 4) was 0.55 kcal/mol/K and the “unfolding enthalpy (calorimetric)” value (pH 4) was 63.3 kcal/mol.
